For two proteins, Km, kcat and kcat/Km results are on record in PMC4922666, “L-Tryptophan Production in Escherichia coli Improved by Weakening the Pta-AckA Pathway” (PLoS ONE, 2016).

A word on the Km: it is the concentration of substrate that gives half-maximal velocity. The term kcat denotes the maximal rate divided by the concentration of active sites. In general, kcat/Km refers to the turnover number divided by the Michaelis constant.

Where a chain is given by its changes, count along the chain named. Names and notes keep the numbering of the source.

Substrate in this series: CC(=O)SCCNC(=O)CCNC(=O)[C@H](O)C(C)(C)COP(=O)(O)OP(=O)(O)OC[C@H]1O[C@@H](n2cnc3c(N)ncnc32)[C@H](O)[C@@H]1OP(=O)(O)O
In words: initial rates, Michaelis-Menten nonlinear regression. It is filed as biochemical, Escherichia coli. To be noted: 100 mM phosphate buffer pH 7.4, 25°C, acetyl-CoA 20-400 μmol/L. From the text:
initial rates, Michaelis-Menten nonlinear regression on Pta (phosphate acetyltransferase; EC 2.3.1.8)

[1] abbreviates: natural variant Pta1 from E. coli CCTCC M 2016009.

B1: Pta (phosphate acetyltransferase; EC 2.3.1.8) (Escherichia coli K-12) (protein)
chain: SRIIMLIPTGTSVGLTSVSLGVIRAMERKGVRLSVFKPIAQPRTGGDAPDQTTTIVRANSSTTTAAEPLKMSYVEGLLSSNQKDVLMEEIVANYHANTKDAEVVLVEGLVPTRKHQFAQSLNYEIAKTLNAEIVFVMSQGTDTPEQLKERIELTRNSFGGAKNTNITGVIVNKLNAPVDEQGRTRPDLSEIFDDSSKAKVNNVDPAKLQESSPLPVLGAVPWSFDLIATRAIDMARHLNATIINEGDINTRRVKSVTFCARSIPHMLEHFRAGSLLVTSADRPDVLVAACLAAMNGVEIGALLLTGGYEMDARISKLCERAFATGLPVFMVNTNTWQTSLSLQSFNLEVPVDDHERIEKVQEYVANYINADWIESLTATSERSRRLSPPAFRYQLTELARKAGKRIVLPEGDEPRTVKAAAICAERGIATCVLLGNPAEINRVAASQGVELGAGIEIVDPEVVRESYVGRLVELRKNKGMTETVAREQLEDNVVLGTLMLEQDEVDGLVSGAVHTTANTIRPPLQLIKTAPGSSLVSSVFFMLLPEQVYVYGDCAINPDPTAEQLAEIAIQSADSAAAFGIEPRVAMLSYSTGTSGAGSDVEKVREATRLAQEKRPDLMIDGPLQYDAAVMADVAKSKAPNSPVAGRATVFIFPDLNTGNTTYKAVQRSADLISIGPMLQGMRKPVNDLSRGALVDDIVYTIALTAIQSAQQQ
notes: full length, untagged by primers (NdeI/HindIII in pET24a, native stop codon), expressed in E. coli BL21(DE3), DEAE-Sepharose purified, about 77 kDa; variant Pta1 (P69L) is natural in E. coli CCTCC M 2016009
In the case of B1, the Km turned out to be 89 ± 6.3 µM, the kcat is 2380 ± 120 s⁻¹ and the kcat/Km was 2.7e+07 ± 3.6e+06 M⁻¹ s⁻¹.

B2: Pta (phosphate acetyltransferase; EC 2.3.1.8) (Escherichia coli K-12; P69L) (protein)
chain: B1 chain with P68L
notes: as for B1
As for B2, under setting [1], the Km was found to be 260 ± 13 µM, the kcat was 1480 ± 74 s⁻¹ and the specificity constant (kcat/Km) was 5.7e+06 ± 500000 M⁻¹ s⁻¹.
